# According to PMC8647860 (Nature, 2021):
# T1: recombinant pig GlyR α1 subunit without fluorophore (pig)
# T1 chain: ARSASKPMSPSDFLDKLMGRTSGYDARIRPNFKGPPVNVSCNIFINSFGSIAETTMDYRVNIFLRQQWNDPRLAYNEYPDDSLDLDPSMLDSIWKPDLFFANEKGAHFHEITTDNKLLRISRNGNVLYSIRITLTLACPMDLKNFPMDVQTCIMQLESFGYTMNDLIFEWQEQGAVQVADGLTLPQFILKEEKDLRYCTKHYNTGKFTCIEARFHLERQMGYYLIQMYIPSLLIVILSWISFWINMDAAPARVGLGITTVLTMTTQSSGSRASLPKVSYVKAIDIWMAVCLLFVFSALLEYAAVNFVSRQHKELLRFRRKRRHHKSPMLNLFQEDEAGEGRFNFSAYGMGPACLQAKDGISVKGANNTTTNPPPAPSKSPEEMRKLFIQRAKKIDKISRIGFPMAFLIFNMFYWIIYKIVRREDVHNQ
# T2: recombinant pig GlyR α1 subunit tagged with YFP (pig)
# T2 chain: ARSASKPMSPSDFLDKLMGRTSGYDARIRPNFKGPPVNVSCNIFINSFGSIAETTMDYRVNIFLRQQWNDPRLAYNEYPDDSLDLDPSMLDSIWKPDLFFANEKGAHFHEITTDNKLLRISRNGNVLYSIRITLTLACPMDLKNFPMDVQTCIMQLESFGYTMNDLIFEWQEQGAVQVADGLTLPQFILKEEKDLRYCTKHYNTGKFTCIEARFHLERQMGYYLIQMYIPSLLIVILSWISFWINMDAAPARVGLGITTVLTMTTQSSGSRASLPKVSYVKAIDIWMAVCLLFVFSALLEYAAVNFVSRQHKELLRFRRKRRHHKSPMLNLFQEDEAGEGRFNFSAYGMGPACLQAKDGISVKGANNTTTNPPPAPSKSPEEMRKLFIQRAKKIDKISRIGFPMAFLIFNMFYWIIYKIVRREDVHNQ
# What was measured:
# [1] = target: Glycine receptor β subunit (native heteromeric GlyR, 4α:1β) (Sus scrofa, UniProt A0A4X1TUM3+Q6KBX4); assay: cryo-EM structure; assay type: binding
# [2] = target: recombinant pig GlyR α1 subunit without fluorophore (pig); assay: cryo-EM structure
# [3] = target: T1, recombinant pig GlyR α1 subunit without …; assay: cryo-EM structure
# [4] = target: T2, recombinant pig GlyR α1 subunit tagged …; assay: SEC
molecule,measurement,setting,value
NCC(=O)O [glycine],cryo-EM structure (2.7 Å),[1],formed between the hydroxyl moiety of βY231 and the carboxyl group of glycine
recombinant pig GlyR β subunit without fluorophore (receptor),stoichiometry N (α subunits per β subunit),[2],4
"anti-GlyR α 3D1 Fab (Fab, V domains shown) VH: QVQLQQSGAELMKPGAAVKISCKATGHTISRYWIDWLKQRPGHGLEWIGEILPGSGSTNYNEKFKGKATFTAEKSSNTAYMQLSSLTSEDSAVYYCAMGVRGNYFDYWGQGTTLTVSS VL: DIVMTQSHKFMSTSVGDRVSITCKASQDVSTAVAWYQQKPGQSPKLLIYWASTRHTGVPGRFTGSGSGTDYTLTISSVQAEDLSLYYCQQHYSTPRTFGGGTKLEIK",binding result,[3],binds
same,binding result,[4],binds
